The subject of the experiment is βlox5 cells. As to the kind of experiment: RT-PCR analysis of pancreatic hormone gene expression in βlox5 cells. The format is cell-based, human. The conditions noted are these: βlox5 cells expressing PDX-1; data not shown. The method, then:
FIG. 2: RT-PCR analysis of pancreatic hormone gene expression in βlox5. The conditions tested were βlox5 cells grown in monolayer culture, βlox5 cells infected with a retroviral vector expressing PDX-1, βlox5 cells grown as three-dimensional aggregates, and βlox5 cells treated with exendin-4. FIG. 2(A) insulin; FIG. 2(B) quantitative RT-PCR analysis of insulin gene expression; FIG. 2(C) other pancreatic hormones. Exendin-4 (Sigma) was used at a concentration of 10 nM. RT-PCR for insulin, somatostatin, glucagon, and IAPP have been described previously (Itkin-Ansari et al., submitted). Quantitative RT-PCR was done by interpolation from a standard curve constructed using a plasmid containing the human insulin cDNA.
PDX-1 also acted synergistically with cell-cell contact to further increase the level of somatostatin expression about 1,000-fold above the cells not expressing PDX-1, to a level similar to that found in normal human islets. To determine whether βlox5 could be induced to express pancreatic hormones, recombinant PDX-1 was expressed in βlox5 using a retroviral vector. […] Therefore, other factors were examined for their ability to induce hormone expression in βlox5 cells expressing PDX-1. […]

B1: betacellulin (protein, UniProt P35070 32-111, looked up)
Betacellulin: DGNSTRSPETNGLLCGDPEENCAATTTQSKRKGHFSRCPKQYKHYCIKGRCRFVVAEQTPSCVCDEGYIGARCERVDLFY
notes: factor reported to induce endocrine differentiation in cell lines and primary cells
Take B1: the “effect on hormone expression in βlox5 cells” value was “no effect”.

The record behind these values is patent US6911324B2, “Induction of beta cell differentiation in human cells” (The Regents of the University of California, priority 2001, dated 2005).
